In paper doi:10.1101/2020.07.27.221150:
Like-named read-outs stand apart in the source and are kept apart here.

Assays:
[1] = molecular target: GNNQQNY, N-terminal hepta-peptide of yeast prion protein Sup35 (yeast)
[2] = molecular target: GNNQQNY, N-terminal hepta-peptide of yeast prion protein Sup35 (yeast); remark: listed apart in the source

Q: For “GNNQQNY, N-terminal hepta-peptide of yeast prion protein Sup35”, which size of the critical nucleus n* [1] is on record?
A: Its size of the critical nucleus n* is 7.2 monomers.

Q: What about the size of the critical nucleus n* [2] of the same substance?
A: Its size of the critical nucleus n* is 6 monomers.
